Where a SMILES comes first, the peptide text is derived from it. [ ]: non-standard residue; d: D form. The star is where a group is joined. dPhe(4-NHCONH2) = NC(=O)Nc1ccc(C[C@@H](N)C(=O)O)cc1; Dihydroorotyl(S) = O=C1C[C@@H](C(=O)*)NC(=O)N1; dPhe(4-Cl) = N[C@H](Cc1ccc(Cl)cc1)C(=O)O; Phe(4-NH2) = Nc1ccc(C[C@H](N)C(=O)O)cc1; d2Nal = N[C@H](Cc1ccc2ccccc2c1)C(=O)O; Lys(iPr) = CC(C)NCCCC[C@H](N)C(=O)O; d3Pal = N[C@H](Cc1cccnc1)C(=O)O
How the values were obtained:
[1] = tested on: mouse embryo fibroblast cells; assay: LDH release assay; format: cell-based; settings: 1 μM Aβ(1–40); triplicate
Source text: Since amyloid fibrils can be toxic to cells and are associated with several neurological diseases, it is a concern whether or not amyloid fibrils of GnRH analogs are able to generate a toxic response as well. To measure the potential toxicity of GnRH analogs, we used the lactate dehydrogenase (LDH) release assay for cell killing. The LDH release assay is a widely used assay to determine the cytotoxicity of chemicals or environmental toxic factors. LDH is a soluble cytosolic enzyme that is released into the culture medium following the loss of membrane integrity. For the LDH assay, we used mouse embryo fibroblast cells and aged peptide samples at 60 μM in 5% D-mannitol.
For the LDH assay, we used mouse embryo fibroblast cells and peptide fibrils at 60 μM final concentration in 5% D-mannitol. For the buffer control, we used 5% D-mannitol in water. We also used 1 μM Aβ(1–40) and a cell lysate to compare our data. The assay was done using a kit (Sigma) as described by the manufacturer. The assays were done in triplicate and the data presented as the standard error of the mean.

histamine release = settings: cited from earlier work

Molecule	toxicity (LDH release) [1]	safety margin with regard to histamine release (histamine release)
Aβ(1–40): amyloid peptide Aβ(1–40), used as positive control in the LDH release assay	neither the peptide analog samples nor Aβ(1–40) generated toxicity	–
CC(=O)N[C@H](Cc1ccc2ccccc2c1)C(=O)N[C@H](Cc1ccc(Cl)cc1)C(=O)N[C@H](Cc1cccnc1)C(=O)N[C@@H](CO)C(=O)N[C@@H](Cc1ccc(NC(=O)[C@@H]2CC(=O)NC(=O)N2)cc1)C(=O)N[C@H](Cc1ccc(NC(N)=O)cc1)C(=O)N[C@@H](CC(C)C)C(=O)N[C@@H](CCCCNC(C)C)C(=O)N1CCC[C@H]1C(=O)N[C@H](C)C(N)=O [L13, Ac-DNal-DCpa-DPal-Ser-Aph(LHor)-DAph(Cbm)-Leu-ILys-Pro-DAla-NH2] (Ac-[d2Nal][dPhe(4-Cl)][d3Pal]S[Phe(4-NH2)](Dihydroorotyl(S))[dPhe(4-NHCONH2)]L[Lys(iPr)]P[dA]-NH2)	–	good safety margin
